One substance from article doi:10.1101/2020.02.11.943977 can be followed below.

In this data set the target is Replication protein A (RPA heterotrimer) (human) (UniProt P27694+P15927+P35244). Put plainly: competition.
Replication protein A (RPA heterotrimer) (human), sequence (P27694 whole entry, chain 1 of 3): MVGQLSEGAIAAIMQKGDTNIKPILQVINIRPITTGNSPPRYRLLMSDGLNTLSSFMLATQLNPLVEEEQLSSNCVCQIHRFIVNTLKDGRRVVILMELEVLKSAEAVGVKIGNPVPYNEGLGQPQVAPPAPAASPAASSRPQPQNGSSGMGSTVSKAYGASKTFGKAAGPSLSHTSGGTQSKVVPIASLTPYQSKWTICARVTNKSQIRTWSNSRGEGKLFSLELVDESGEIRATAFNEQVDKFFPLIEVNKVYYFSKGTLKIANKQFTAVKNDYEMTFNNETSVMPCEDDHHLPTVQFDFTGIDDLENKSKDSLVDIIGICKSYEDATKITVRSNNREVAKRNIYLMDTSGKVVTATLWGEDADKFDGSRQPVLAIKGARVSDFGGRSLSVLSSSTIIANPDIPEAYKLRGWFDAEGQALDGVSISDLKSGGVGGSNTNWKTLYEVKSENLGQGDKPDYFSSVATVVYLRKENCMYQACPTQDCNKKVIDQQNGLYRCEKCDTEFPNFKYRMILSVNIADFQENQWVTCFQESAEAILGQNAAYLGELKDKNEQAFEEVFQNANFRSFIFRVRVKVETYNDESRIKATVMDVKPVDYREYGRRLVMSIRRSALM
Replication protein A (RPA heterotrimer) (human), sequence (P15927 whole entry, chain 2 of 3): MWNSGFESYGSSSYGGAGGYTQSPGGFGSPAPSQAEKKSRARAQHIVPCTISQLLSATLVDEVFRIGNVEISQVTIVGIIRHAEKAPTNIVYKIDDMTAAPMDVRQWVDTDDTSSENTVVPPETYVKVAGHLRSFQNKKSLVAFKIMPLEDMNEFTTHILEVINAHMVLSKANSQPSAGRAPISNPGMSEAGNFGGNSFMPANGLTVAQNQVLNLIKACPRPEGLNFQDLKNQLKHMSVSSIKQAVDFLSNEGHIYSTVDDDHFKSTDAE
Replication protein A (RPA heterotrimer) (human), sequence (P35244 whole entry, chain 3 of 3): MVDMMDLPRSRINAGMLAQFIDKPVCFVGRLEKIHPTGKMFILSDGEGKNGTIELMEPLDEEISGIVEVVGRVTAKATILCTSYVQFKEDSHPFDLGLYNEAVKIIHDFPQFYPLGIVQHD

With pHSG299 supercoiled plasmid, the binding signal is, setting by setting: (scale: fold lower affinity than RNA 501) 500; (scale: fold lower affinity than ssDNA 211) 33000.
